Laboratory results taken from PMC3234860 (The Journal of Biological Chemistry, 2011).

Columns and labels:
native MS = molecular target: the molecule itself; assay: native MS
Sfr1 = molecular target: T1, Sfr1 (S. pombe, UniProt Q9USV1 1-299); assay: AUC
T1 sequence: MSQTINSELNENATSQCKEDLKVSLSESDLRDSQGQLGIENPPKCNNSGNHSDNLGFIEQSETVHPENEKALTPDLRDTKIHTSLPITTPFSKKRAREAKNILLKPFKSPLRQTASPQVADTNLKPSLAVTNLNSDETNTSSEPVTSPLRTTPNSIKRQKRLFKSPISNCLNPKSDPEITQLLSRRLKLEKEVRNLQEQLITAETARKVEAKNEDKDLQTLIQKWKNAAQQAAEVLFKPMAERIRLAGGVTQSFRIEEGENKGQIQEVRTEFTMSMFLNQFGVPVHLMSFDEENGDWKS

B1: Swi5 (natural protein)
chain: MEKSQLESRVHLLEQQKEQLESSLQDALAKLKNRDAKQTVQKHIDLLHTYNEIRDIALGMIGKVAEHEKCTSVELFDRFGVNGSE
B1 was tested, and the “stoichiometry N” value (native MS) was 2 and the “stoichiometry N” value (Sfr1) was 1 Swi5:Sfr1.
